We go through two molecules from PMC5302818.

One test concerns the target BIR1-CFP (Arabidopsis). The experiment in a line: cross number and brightness (Cross N&B) fluorescence fluctuation analysis; leaf disks of N. benthamiana transiently expressing AtRGS1-YFP with BIR1-CFP or BAK1-CFP; time series of 100 confocal images; SimFCS analysis.
Test [1] has as its target T1, BAK1-CFP (Arabidopsis), Q94F62.
T1 chain: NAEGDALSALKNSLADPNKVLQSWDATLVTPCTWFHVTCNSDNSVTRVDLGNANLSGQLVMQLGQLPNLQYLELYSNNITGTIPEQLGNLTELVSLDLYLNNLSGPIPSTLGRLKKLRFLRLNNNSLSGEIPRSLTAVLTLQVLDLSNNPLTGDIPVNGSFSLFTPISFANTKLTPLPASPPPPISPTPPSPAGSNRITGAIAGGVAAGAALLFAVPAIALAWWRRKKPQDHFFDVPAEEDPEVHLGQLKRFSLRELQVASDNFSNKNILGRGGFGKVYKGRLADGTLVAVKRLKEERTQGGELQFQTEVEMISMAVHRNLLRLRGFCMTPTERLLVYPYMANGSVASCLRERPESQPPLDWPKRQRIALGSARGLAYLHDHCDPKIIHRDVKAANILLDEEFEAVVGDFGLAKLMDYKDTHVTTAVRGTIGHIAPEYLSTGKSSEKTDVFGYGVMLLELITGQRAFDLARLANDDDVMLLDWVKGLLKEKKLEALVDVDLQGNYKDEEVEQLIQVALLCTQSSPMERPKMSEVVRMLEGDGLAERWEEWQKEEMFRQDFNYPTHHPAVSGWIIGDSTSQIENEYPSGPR
Described as above. The conditions noted are these: remark: other sources report otherwise.

B1: AtRGS1-YFP (natural protein)
chain: MASGCALHGGCPSDYVAVAISVICFFVLLSRSVLPCLIHKAPRTNSSSFWIPVIQVISSFNLLFSIMMSVNLLRFRTKHWWRYCYLWAVWIEGPLGFGLLMSCRITQAFQLYFIFVKKRLPPVKSYIFLPLVLLPWIFGAAIIHATKPLNDKCHMGLQWTFPVAGLHALYVLALIAFTRAVRHVEFRFDELRDLWKGILVSATSIVIWVTAFVLNEIHEEISWLQVASRFVLLVTGGILVVVFFSISSNQPLLSQISLKKRQNFEFQRMGQALGIPDSGLLFRKEEFRPVDPNEPLDKLLLNKRFRHSFMEFADSCYAGETLHFFEEVYEHGKIPEDDSIRRIYMARHIMEKFIVAGAEMELNLSHKTRQEILTTQDLTHTDLFKNALNEVMQLIKMNLVRDYWSSIYFIKFKEEESCHEAMHKEGYSFSSPRLSSVQGSDDPFYQEHMSKSSRCSSPG
Take B1: the stoichiometry N with BIR1-CFP (Arabidopsis) amounted to 1.

B2: AtRGS1-YFP, Q8H1F2 1-459 (natural protein)
chain: B1 chain
Molecule B2 registered a stoichiometry N in test [1] of 1.
